The record followed here is article PMC1847702 (PLoS ONE, 2007).

This assay concerns the target T1, ubiquitin-vinylmethylester (UniProt P0CG48 1-76, vinylmethylester (Michael acceptor) added to the C-terminus).
T1 construct: also called ubiquitin-VME; ubiquitin probe
Kind of assay: covalent adduct formation with electrophilic (activity-based) probe, SDS-PAGE and Coomassie staining. Particulars: both partners purified.

B1: His-tagged elaD, bacterially expressed (enzyme)
chain: MMVTVVSNYCQLSQTQLSQTFAEKFTVTEELLQSLKKTALSGDEESIELLHNIALGYDKFGKEAEDILYHIVRTPTNETLSIIRLIKNACLKLYNLAHIATNSPLKSHDSDDLLFKKLFSPSKLMTIIGDEIPLISEKQSLSKVLLNDENNELSDGTNFWDKNRQLTTDEIACYLQKIAANAKNTQVNYPTGLYVPYSTRTHLEDALNENIKSDPSWPNEVQLFPINTGGHWILVSLQKIVNKKNNKLQIKCVIFNSLRALGYDKENSLKRVINSFNSELMGEMSNNNIKVHLNEPEIIFLHADLQQYLSQSCGAFVCMAAQEVIEQRESNSDSAPYTLLKNHADRFKKYSAEEQYEIDFQHRLANRNCYLDKYGDANINHYYRNLEIKHSQPKNRASGKRVS
notes: also called recombinant elaD
Consider B1, for which the binding result is reported as “binds”.
